Assay results: patent publication US20250027068
Residue numbers refer to the chain shown, from its start.

B1: PRT-377 (protein)
chain: MVTSVWTKGVTPPTNFTYGEDVLHAPYVANQGWYDITKTFNGKDDLLCGAATAGNMLHWWFDQNKEQIENYLKKHPEKQKINFNGEQMFDVKEAIDTKDSQLDSKLFEYFLEKAFPYLSTKHLGVFPDHVIDMFINGYRLSLTNHGPTPVKRGSKDPRGGIFDAVFTRGDQSKLLTNRHDFKEKTLKEISDLIKQELTEGKALGISHTYANVRINHVINLWGADFDAEGNLEAIYVTDSDSNASIGMKKYFVGVNSNGKVAISAKEIEEDNIGAQVLGLFTLSTGQDIWNQTN
B2: PRT-594 (protein)
chain: MANQEIRYSEETPSTITSVWTKGVTPPTDFIQNEDVLHAPYIANQGWYDITKTFNGKDDLLCGAATAGNMLHWWFDQNKEQIENYLKKHPEKQKINFNGEQMFDVKEAIDTKDSQLDSALFEYFKDKAFPYLSTKHLGVFPDHVIDMFINGYRLSLTNHGPTPVKRGTKDPRGGIFDAVFTRGDQSKLLTSRHDFKEKTLNEISDLIKQELTEGKALGLSHTYANVRINHVINLWGADFNAEGNLEAIYVTDSDSNASIGMKKYYVGVNSAGKVAISAKEIEGDNIGAQVLGLFTLSTGQDIWNQTNLEHHHHHH
B3: PRT-435 (protein)
chain: MSQTEDSESLQRLRDIEDFQAEKEKQNVVYTKWLDGVDVKDHDFRKIVDGNIAYYATPLLNGRGFYDINKDFNRDSDKCAAAVAANMFHYWLDRNRDNVDRFLRQNPEKHGIIELPDGQLKLSDFLNTYESDDGYRDKSKLFDFISNNFNGPVWTDKLLDNYINGYAYNYKYGRTIEDPTKNTSKINFFKEVFNEKILTNNHSIRNQNEFSVLLSEALYTGKAIGLSYGPAGLRHSLGHIISVWGADLDADGNVVAIYVTDSDDKKLTIGDERVGLKRYKISTDDEGRLRLTAYEETHNTGGQIRGLWTLDTGKQAWADYFDKTEQTGTDQAEQ
B4: PRT-436 (protein)
chain: B3 chain with E24K, K25D
B5: PRT-438 (protein)
chain: B3 chain with E24K, F65L
B6: PRT-440 (protein)
chain: B3 chain with E24K, F210L
B7: PRT-430 (protein)
chain: B3 chain with E24K, I52S
B8: PRT-373 (protein)
chain: B3 chain with I52S, F65W, S76N, N147E, Y170S, P179S, S215I, S236G, I304V
B9: PRT-432 (protein)
chain: B3 chain with E24K, Y170S
B10: PRT-441 (protein)
chain: B3 chain with E24K, L233T
B11: PRT-445 (protein)
chain: B3 chain with E24K, P179S
B12: PRT-431 (protein)
chain: B3 chain with E24K, N147E
B13: PRT-577 (protein)
chain: MANQEIRYSKATPSTITSVWTKGVTPPENFIYNEDVLHAPYLANQGWYDITKTFNGKDDLLCGAATAGNMLHWWFDQNKEQIERYLKEHPEKQKINFNGEQMFDVKEAIDTKDSQTNSKLFEYFKDKAFPYLSTKHLGVFPDHVIDMFINGYRLSLTNHGPTPVKEQTKDPRGGIFDAVFTRGDQSKLLTSRHDFKEKTLNEISQLIKQELTEGKALGLSHTYANVRINHVINLWGADFNAEGNLEAIYVTDSDSNASIGMKKYYVGVNSAGKVAISAKEIEGDNIGAQVLGLFTLSTGQDIWQQTNLEHHHHHH
B14: PRT-585 (protein)
chain: B13 chain with N29Q, L42I, E88K, Q205D, Q304E

What was measured:
[1] = biological target: pooled human IgG (human IgG1, 2, 3 and 4)
[2] = biological target: pooled human IgG (human IgG1,2,3 and 4)

Protein | Enzyme Activity Endpoint Assay (purified): Fab′2 [1] | Enzyme Activity Endpoint Assay (purified): Fc [1] | Enzyme Activity Endpoint Assay (purified): IgG [1] | Enzyme Activity Endpoint Assay (purified): scIgG [1] | Enzyme Activity Endpoint Assay (purified): Fab'2 [1] | Enzyme Activity Endpoint Assay: Fab′2 [2] | Enzyme Activity Endpoint Assay: Fc [2] | Enzyme Activity Endpoint Assay: IgG [2] | Enzyme Activity Endpoint Assay: scIgG [2]
B1 | 572 ng/µL | 348 ng/µL | 0 ng/µL | 242 ng/µL |  |  |  |  | 
B2 |  | 271 ng/µL | 123 ng/µL | 487 ng/µL | 138 ng/µL |  |  |  | 
B3 | 35 ng/µL | 205 ng/µL | 625 ng/µL | 380 ng/µL |  | 35 ng/µL | 205 ng/µL | 625 ng/µL | 380 ng/µL
B4 |  | 305 ng/µL | 0 ng/µL | 379 ng/µL | 445 ng/µL |  |  |  | 
B5 |  | 320 ng/µL | 0 ng/µL | 249 ng/µL | 578 ng/µL |  |  |  | 
B6 |  | 328 ng/µL | 0 ng/µL | 245 ng/µL | 575 ng/µL |  |  |  | 
B7 | 492 ng/µL | 330 ng/µL | 0 ng/µL | 324 ng/µL |  |  |  |  | 
B8 | 392 ng/µL | 295 ng/µL | 38 ng/µL | 281 ng/µL |  |  |  |  | 
B9 | 462 ng/µL | 305 ng/µL | 0 ng/µL | 385 ng/µL |  |  |  |  | 
B10 |  | 310 ng/µL | 0 ng/µL | 217 ng/µL | 514 ng/µL |  |  |  | 
B11 |  | 330 ng/µL | 0 ng/µL | 259 ng/µL | 559 ng/µL |  |  |  | 
B12 | 521 ng/µL | 310 ng/µL | 0 ng/µL | 230 ng/µL |  |  |  |  | 
B13 |  | 338 ng/µL | 0 ng/µL | 230 ng/µL | 566 ng/µL |  |  |  | 
B14 |  | 303 ng/µL | 0 ng/µL | 229 ng/µL | 574 ng/µL |  |  |  | 
